Measured values from the supplement of paper PMC7877785.
± gives the uncertainty stated by the source.

Assay: self-splicing fitness, log relative to wild type (ln ratio); higher = more splicing; Tetrahymena group I intron in knt gene, E. coli kanamycin selection, DiMSum; sequences stand for … in CUCUCU…GGAGGGAAAAGUUAUCAGGCAUGCACCUGGUAGCUAGUCUUUAAACCAAUAGAUUGCAUCGGUUUAAAAGGCAAGACCGUCAAAUUGCGGGAAAGGGGUCAACAGCCGUUCAGUACCAAGUCUCAGGGGAAACUUUGAGAUGGCCUUGCAAAGGGUAUGGUAAUAAGCUGACGGACAUGGUCCUAACCACGCAGCCAAGUCCUAAGUCAACAGAUCUUCUGUUGAUAUGGAUGCAGUUCACAGACUAAAUGUCGGUCGGGGAAGAUGUAUUCUUCUCAUAAGAUAUAGUCGGACCUCUCCUUAAUGGGAGCUAGCGGAUGAAGUGAUGCAACACUGGAGCCGCUGGGAACUAAUUUGUAUGCGAAAGUAUAUUGAUUAGUUUUGGAGUACUCGUGGUCG
In short: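 Colonies from six replicate transformations of E. coli BL21(DE3) were pooled and amplicon-sequenced on an Illumina HiSeq 2500. The library placed an intron with all eight P1ex-region nucleotides randomised inside the knt kanamycin-resistance gene on pET-22b(+), and cells grew overnight at 37°C or 30°C on LB agar with or without 25 μg/mL kanamycin (plus 100 μg/mL carbenicillin, 50 μM IPTG, 0.2% rhamnose). Fitness is the DiMSum error-weighted combination of wild-type-normalised replicate fold changes, kanamycin versus none.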

Sequence	self-splicing fitness (ln) (30 °C)	self-splicing fitness (ln) (37 °C)
UAGCAGCAAUAUUACGCCAC	-3.82 ± 0.39	-1.45 ± 0.3
GCGCAGCAAUAUUACGAUUU	-1.07 ± 0.094	0.585 ± 0.11
UUCGAGCAAUAUUACGGCCC	-1.75 ± 0.4	–
CGAGAGCAAUAUUACGGGUA	-2.27 ± 0.31	-2.23 ± 0.27
AGUGAGCAAUAUUACGCUGU	-3.12 ± 0.25	-1.64 ± 0.18
AUUAAGCAAUAUUACGCGUA	-1.27 ± 0.14	-0.834 ± 0.16
GGCGAGCAAUAUUACGAAGU	-2.81 ± 0.44	-1.21 ± 0.19
CACCAGCAAUAUUACGUUUA	-3.33 ± 0.16	-2.47 ± 0.13
GGUCAGCAAUAUUACGGGGU	-3.37 ± 0.12	-0.793 ± 0.086
GUCCAGCAAUAUUACGAGAG	-1.15 ± 0.078	0.117 ± 0.077
AUGAAGCAAUAUUACGUUGU	-1.99 ± 0.12	-0.91 ± 0.12
CUGCAGCAAUAUUACGUUGA	-3.42 ± 0.2	-3.21 ± 0.24
UCUUAGCAAUAUUACGUUCU	–	-2.75 ± 0.21
GAUCAGCAAUAUUACGAAUC	-3.46 ± 0.41	-2.61 ± 0.39
AUCUAGCAAUAUUACGCACA	-0.774 ± 0.11	0.129 ± 0.12
UGACAGCAAUAUUACGCACU	0.279 ± 0.051	-0.101 ± 0.059
ACGUAGCAAUAUUACGAUAA	-1.52 ± 0.13	-1.51 ± 0.18
CAGUAGCAAUAUUACGGAAC	–	-2.72 ± 0.43
CCACAGCAAUAUUACGCUUG	-2.66 ± 0.075	-1.96 ± 0.083
AUUAAGCAAUAUUACGGGCG	-0.789 ± 0.085	-0.228 ± 0.11
ACUAAGCAAUAUUACGUGUC	-3.48 ± 0.14	-3.57 ± 0.21
ACACAGCAAUAUUACGUGUA	-3.54 ± 0.11	-2.06 ± 0.085
GGGGAGCAAUAUUACGAUGA	-2.02 ± 0.3	-2.57 ± 0.37
AGUAAGCAAUAUUACGGGCU	-1.28 ± 0.12	-1.6 ± 0.17
UCCUAGCAAUAUUACGAAUC	–	-2.17 ± 0.29

Sequence	self-splicing fitness (ln) (30 °C)	self-splicing fitness (ln) (37 °C)
CACAAGCAAUAUUACGACUA	-1.02 ± 0.089	-1.21 ± 0.074
UCGAAGCAAUAUUACGCGGC	-3.35 ± 0.32	-2.87 ± 0.36
UGCGAGCAAUAUUACGCUAG	-2.68 ± 0.45	–
AUCUAGCAAUAUUACGGACG	-0.422 ± 0.07	0.212 ± 0.094
GCUUAGCAAUAUUACGUAUC	-1.32 ± 0.083	0.415 ± 0.093
AUGCAGCAAUAUUACGCAGG	-3.71 ± 0.14	-2.13 ± 0.12
CCUUAGCAAUAUUACGCUCA	-3 ± 0.21	-1.94 ± 0.3
UUCGAGCAAUAUUACGGGAG	-3.53 ± 0.2	-2.84 ± 0.22
ACUGAGCAAUAUUACGCGGC	-3.69 ± 0.4	-2.28 ± 0.28
UCCUAGCAAUAUUACGAUGA	0.139 ± 0.083	0.437 ± 0.098
UCUGAGCAAUAUUACGCCUG	-3.02 ± 0.18	-2.18 ± 0.2
UGCUAGCAAUAUUACGCGGU	-4.3 ± 0.42	-2.36 ± 0.31
UGAUAGCAAUAUUACGCCUC	-3.09 ± 0.32	-1.34 ± 0.39
UUGUAGCAAUAUUACGCGUA	-1.31 ± 0.18	-0.742 ± 0.22
CAACAGCAAUAUUACGAAAU	-2.7 ± 0.12	-2.47 ± 0.2
GCCCAGCAAUAUUACGUAAG	-1.15 ± 0.072	-0.871 ± 0.1
AAACAGCAAUAUUACGGAUC	-2.82 ± 0.11	-1.73 ± 0.11
CAUGAGCAAUAUUACGCAUA	-2.29 ± 0.26	-1.78 ± 0.23
UGAGAGCAAUAUUACGAACA	-0.706 ± 0.27	-0.855 ± 0.2
UUGAAGCAAUAUUACGUGUA	-1.7 ± 0.053	-1.25 ± 0.074
GGGCAGCAAUAUUACGGGUA	–	-2.55 ± 0.35
AAUGAGCAAUAUUACGACAC	-2.71 ± 0.31	–
GGUCAGCAAUAUUACGCAAC	-0.639 ± 0.11	-0.859 ± 0.17
UGCCAGCAAUAUUACGGCCC	-0.651 ± 0.12	-0.528 ± 0.17
GUGUAGCAAUAUUACGCAUA	-2.5 ± 0.21	-1.31 ± 0.19

Sequence	self-splicing fitness (ln) (30 °C)	self-splicing fitness (ln) (37 °C)
UUACAGCAAUAUUACGUGCA	-1.27 ± 0.055	-0.148 ± 0.063
GCCUAGCAAUAUUACGGCUC	-1.99 ± 0.15	-0.272 ± 0.17
AGACAGCAAUAUUACGCGCU	-2.26 ± 0.12	-1.63 ± 0.13
UGGCAGCAAUAUUACGUGGC	-3.92 ± 0.18	-2.72 ± 0.19
CCCGAGCAAUAUUACGCCGA	-3.02 ± 0.39	-2.14 ± 0.36
UCAGAGCAAUAUUACGAACC	–	-1.15 ± 0.42
UGGUAGCAAUAUUACGAUCC	-0.523 ± 0.11	-0.731 ± 0.16
UUCAAGCAAUAUUACGUAGA	-1.5 ± 0.094	-0.928 ± 0.14
GGAUAGCAAUAUUACGUGUG	-1.91 ± 0.12	-1.19 ± 0.14
GCGCAGCAAUAUUACGUCAC	-4.04 ± 0.17	-1.65 ± 0.11
CUAGAGCAAUAUUACGAUGU	-3.45 ± 0.3	-2.2 ± 0.31
GAACAGCAAUAUUACGCGUA	-0.925 ± 0.072	-0.411 ± 0.07
GCGUAGCAAUAUUACGGCGG	-2.79 ± 0.19	-1.36 ± 0.23
CCUAAGCAAUAUUACGUUGU	-3.37 ± 0.16	-2.15 ± 0.15
GCUUAGCAAUAUUACGUCAG	-2.36 ± 0.22	–
CGUAAGCAAUAUUACGACAA	–	-1.32 ± 0.23
GGACAGCAAUAUUACGUAAU	-0.0161 ± 0.056	-0.0127 ± 0.07
AUUCAGCAAUAUUACGAACG	-0.206 ± 0.085	0.232 ± 0.13
CUGCAGCAAUAUUACGAUCA	-3.57 ± 0.29	-2.5 ± 0.2
UCUGAGCAAUAUUACGCCAC	-2.41 ± 0.49	–
AUGCAGCAAUAUUACGAAGG	-3.78 ± 0.37	-2.89 ± 0.41
AGUCAGCAAUAUUACGUUGU	-3.18 ± 0.12	-2.87 ± 0.18
GUCUAGCAAUAUUACGAAAA	-2.3 ± 0.26	-1.26 ± 0.22
UAGAAGCAAUAUUACGCCUC	-2.88 ± 0.5	–
AAUUAGCAAUAUUACGCCUC	-1.22 ± 0.18	-2.47 ± 0.25

Sequence	self-splicing fitness (ln) (30 °C)	self-splicing fitness (ln) (37 °C)
AGAGAGCAAUAUUACGCAGU	–	-2.32 ± 0.35
UUACAGCAAUAUUACGUGUG	-1.72 ± 0.063	0.0664 ± 0.077
ACGCAGCAAUAUUACGUUGA	-1.43 ± 0.11	-1.73 ± 0.11
UACCAGCAAUAUUACGUAUC	-2.55 ± 0.15	-0.118 ± 0.12
CCGAAGCAAUAUUACGAACG	-0.139 ± 0.077	0.554 ± 0.1
GCACAGCAAUAUUACGCUAG	-1.9 ± 0.082	-1.18 ± 0.078
CAUUAGCAAUAUUACGCGCA	-1.39 ± 0.16	-1.52 ± 0.17
AAUGAGCAAUAUUACGCCGA	-2.34 ± 0.3	-1.75 ± 0.43
CUGUAGCAAUAUUACGACGU	-1.13 ± 0.21	-1.54 ± 0.26
CACCAGCAAUAUUACGCAUU	-2.6 ± 0.086	-1.86 ± 0.1
CACGAGCAAUAUUACGAGUA	-2.53 ± 0.16	-2.11 ± 0.22
GAGGAGCAAUAUUACGUACC	-0.85 ± 0.31	-0.663 ± 0.27
CUAGAGCAAUAUUACGGGCC	-2.86 ± 0.34	-1.76 ± 0.34
CCCGAGCAAUAUUACGAGUC	-2.67 ± 0.31	-1.69 ± 0.35
GACAAGCAAUAUUACGUCUG	-3.26 ± 0.16	-2.89 ± 0.15
ACGAAGCAAUAUUACGACUG	-0.657 ± 0.09	-0.396 ± 0.098
AGCCAGCAAUAUUACGGCUG	-2.52 ± 0.17	-1.53 ± 0.2
GGCAAGCAAUAUUACGUCUA	-0.593 ± 0.084	0.16 ± 0.085
AUGAAGCAAUAUUACGGAAA	-2.48 ± 0.15	-0.666 ± 0.15
UUAAAGCAAUAUUACGGCUU	-1.44 ± 0.082	-0.99 ± 0.11
GUAAAGCAAUAUUACGAUCC	-0.0218 ± 0.18	0.363 ± 0.29
CCGAAGCAAUAUUACGAGAU	-3.31 ± 0.17	-2.43 ± 0.21
AGGAAGCAAUAUUACGGGCG	-0.564 ± 0.11	-0.865 ± 0.15
GUAGAGCAAUAUUACGUGAU	-2.29 ± 0.2	-1.36 ± 0.19
